Here are results for 26 sequences from the supplement of paper PMC9732359.

± gives the uncertainty stated by the source.

A short description of the data set: protein stability index of a GFP-peptide fusion (yeast GPS) (PSI 1-4); higher = more stable; sorted into four equal gates, so the index is relative within each strain. In short, it runs like this: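 Sequencing reads from sorted gates were used to score each peptide. The library consisted of tiled 17-residue yeast protein peptides fused downstream of GFP on a Cherry-expressing plasmid, pooled and carried in yeast. Mid-log cultures in leucine-free medium were split into four equal gates by GFP/Cherry ratio, and each gate's plasmids were PCR-amplified and Illumina-sequenced. The protein stability index adds up, over all gates, the read frequency multiplied by the gate number.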

As for IADQDMEDEDMVDVIID [ESC2], the protein stability index runs as follows: (doa10∆) 3.41 ± 0.16; (pdr5∆) 3.3 ± 0.079; (san1∆) 3.15 ± 0.088; (ubr1∆) 3.15 ± 0.11.
Taken in the same sequence, the figures for IAKIKKVCECVCMHCGK [RPO21] were 1.92 ± 0.057, 2.28 ± 0.067, 2.7 ± 0.091 and 2.43 ± 0.046.
The sequence IAKLVAVLNVSPVYDVD [NUT1] came in with a protein stability index (doa10∆) of 1.84 ± 0.056, a protein stability index (pdr5∆) of 2.05 ± 0.046, a protein stability index (san1∆) of 1.7 ± 0.084 and a protein stability index (ubr1∆) of 1.75 ± 0.043.
For IALRNGQSSVKHEDFVE [RPT5], the protein stability index reads like this: (doa10∆) 2.89 ± 0.19; (san1∆) 3.23 ± 0.14; (ubr1∆) 3.41 ± 0.16.
Take IALSRRFLLNGRVKALE [YDL116W/NUP84]: the protein stability index (doa10∆) stood at 1.25 ± 0.062, the protein stability index (pdr5∆) is 1.3 ± 0.058, the protein stability index (san1∆) worked out at 1.19 ± 0.13 and the protein stability index (ubr1∆) turned out to be 1.24 ± 0.035.
Taken in the same sequence, the figures for IARLYSCISISDIISML [RRI2] were 1.37 ± 0.061, 1.35 ± 0.05, 1.24 ± 0.093 and 1.17 ± 0.029.
For the sequence IASAGKDGEIMLWNLAA [ASC1], the protein stability index runs as follows: (doa10∆) 2.92 ± 0.077; (pdr5∆) 1.66 ± 0.053; (san1∆) 3.03 ± 0.054; (ubr1∆) 3.09 ± 0.076.
Consider IASDGSECIVSIKSKVV [RRP42], for which the protein stability index is, setting by setting: (doa10∆) 3.1 ± 0.081; (pdr5∆) 3.12 ± 0.075; (san1∆) 2.7 ± 0.2; (ubr1∆) 3.12 ± 0.19.
In the case of ICEPKETLSIFTNVPLN [YJL039C/NUP192], the protein stability index stood at 2.1 ± 0.046 (doa10∆), 2.24 ± 0.042 (pdr5∆), 2.54 ± 0.05 (san1∆) and 2.36 ± 0.037 (ubr1∆).
Consider ICMESLFLEPSWSSSAA [PCI8], for which the protein stability index was 2.86 ± 0.12 (pdr5∆), 2.63 ± 0.15 (san1∆) and 3.17 ± 0.11 (ubr1∆).
With ICYDVNDWQMLEMLKPC [RPB2], the protein stability index reads like this: (doa10∆) 2.62 ± 0.063; (pdr5∆) 2.67 ± 0.086; (san1∆) 2.46 ± 0.073; (ubr1∆) 2.61 ± 0.062.
As to IDDENITKLNKEIRAFD [SRB4], the protein stability index by setting is: (doa10∆) 3.44 ± 0.066; (pdr5∆) 3.33 ± 0.063; (san1∆) 3.27 ± 0.043; (ubr1∆) 3.38 ± 0.056.
Taken in the same sequence, the figures for IDELIDTKLRLEKSKNE [YIL149C/MLP2] were 2.62 ± 0.047, 2.81 ± 0.045, 2.8 ± 0.04 and 2.8 ± 0.032.
Taken in the same sequence, the figures for IDKFIMVVQKYKLSTVV [GRR1] were 1.73 ± 0.068, 1.9 ± 0.081, 1.58 ± 0.11 and 1.86 ± 0.082.
Taken in the same sequence, the figures for IDKLSDVVMKATEPQMV [PRP8] were 2.38 ± 0.063, 2.71 ± 0.064, 2.42 ± 0.065 and 2.28 ± 0.055.
Consider IDLDNDEDDDEDVTDQE [DLS1], for which the protein stability index is, setting by setting: (doa10∆) 3.21 ± 0.12; (pdr5∆) 2.89 ± 0.16; (san1∆) 2.86 ± 0.083; (ubr1∆) 3.17 ± 0.15.
As to IDRKVEFSLPDLEGRAN [RPT1], the protein stability index came to 3.15 ± 0.097 (doa10∆), 3.37 ± 0.1 (pdr5∆), 3.08 ± 0.17 (san1∆) and 3.18 ± 0.1 (ubr1∆).
On the same counts, the results for IDSQMDEASGTPDEDML [GRR1] are 2.93 ± 0.063, 2.96 ± 0.065, 2.85 ± 0.068 and 3.02 ± 0.053.
On the same counts, the results for IEDDGIIESHLIQLQNI [CSN9] are 2.77 ± 0.1, 3.17 ± 0.099, 2.97 ± 0.075 and 2.76 ± 0.073.
Taken in the same sequence, the figures for IEDEDEPFNAGIKYHAT [SMC1] were 3.04 ± 0.083, 2.82 ± 0.1, 2.9 ± 0.062 and 2.89 ± 0.05.
In the case of IEEQDKKVQALQSDKNF [ITC1], the protein stability index by setting is: (doa10∆) 3.23 ± 0.076; (pdr5∆) 3.11 ± 0.054; (san1∆) 3.14 ± 0.045; (ubr1∆) 3.16 ± 0.036.
For the setting “doa10∆”, IEETSAAIKDLDDFGEE [RRP43] came in with a protein stability index of 2.85 ± 0.19.
As to IEKLTDGHLRAPLKHGV [BRR2], the protein stability index reads like this: (doa10∆) 1.72 ± 0.053; (pdr5∆) 2.86 ± 0.058; (san1∆) 3.01 ± 0.051; (ubr1∆) 2.04 ± 0.065.
On the same counts, the results for IELTSYESIATYASVTG [RPN7] are 1.1 ± 0.077, 1.31 ± 0.068, 1.11 ± 0.22 and 1.15 ± 0.12.
In the case of IEPFECVEISHISKIIG [RPN6], the protein stability index (doa10∆) stood at 2.47 ± 0.14 and the protein stability index (san1∆) turned out to be 1.94 ± 0.3.
Take IERDSLVDDENEPSQSL [BRN1]: the protein stability index is, setting by setting: (doa10∆) 3.27 ± 0.12; (pdr5∆) 3.41 ± 0.12; (san1∆) 3.18 ± 0.082; (ubr1∆) 3.2 ± 0.077.
